Measured values taken from patent publication US9644025.

Biological target: Human FcγRII, His-tagged domain (R&D Systems, Cat # 1330-CD) (human) (UniProt P12318)
Experiment: SPR (Biacore 3000), His-tagged receptor captured by penta-His antibody on CM5 chip, antibody injected; steady-state RU relative to control

Relative Binding Capability (%): 100%
Substance: Bapineuzumab (antibody)
